Molecular target: the molecule itself
Experiment: AUC; sedimentation velocity; 30 µM unphosphorylated protein in 50 mM HEPES pH 7.5, 100 mM NaCl; 45,000 rpm; c(s) analysis with SEDFIT; monomer and dimer peaks

B1: MST4 kinase domain (residues 1-300), unphosphorylated (domain or fragment)
chain: not shown
notes: MST4 (mammalian Ste20-like kinase 4), human, residues 1-300 with the kinase domain, cloned from a Mammalian Gene Collection clone into pLIC-SGC1; Phosphorylation was removed with lambda-phosphatase; also called mammalian Ste20-like kinase 4; source: E. coli BL-21(DE3)-R3-pRARE2, purified (Ni-NTA, TEV cleavage, lambda-phosphatase, Superdex 200 SEC, MonoQ); not shown: His6, N-terminal, cleaved
stoichiometry N: 2

— paper PMC2920948, “Structural Comparison of Human Mammalian Ste20-Like Kinases” (PLoS ONE, 2010)
